# Laboratory results reported in patent US20240174744A1 (SCIRHOM, published 2024).
# Numbering of substitutions follows the chain as printed.
# T1: miR2-FL-WT-FLAG (mouse iRhom2 full length wild type C-terminally tagged with the triple-FLAG epitope) (mouse, UniProt Q80WQ6 1-827)
# T1 construct: also called expressed by MEF-DKO-miR2-FL-WT-FLAG cells
# T1 sequence: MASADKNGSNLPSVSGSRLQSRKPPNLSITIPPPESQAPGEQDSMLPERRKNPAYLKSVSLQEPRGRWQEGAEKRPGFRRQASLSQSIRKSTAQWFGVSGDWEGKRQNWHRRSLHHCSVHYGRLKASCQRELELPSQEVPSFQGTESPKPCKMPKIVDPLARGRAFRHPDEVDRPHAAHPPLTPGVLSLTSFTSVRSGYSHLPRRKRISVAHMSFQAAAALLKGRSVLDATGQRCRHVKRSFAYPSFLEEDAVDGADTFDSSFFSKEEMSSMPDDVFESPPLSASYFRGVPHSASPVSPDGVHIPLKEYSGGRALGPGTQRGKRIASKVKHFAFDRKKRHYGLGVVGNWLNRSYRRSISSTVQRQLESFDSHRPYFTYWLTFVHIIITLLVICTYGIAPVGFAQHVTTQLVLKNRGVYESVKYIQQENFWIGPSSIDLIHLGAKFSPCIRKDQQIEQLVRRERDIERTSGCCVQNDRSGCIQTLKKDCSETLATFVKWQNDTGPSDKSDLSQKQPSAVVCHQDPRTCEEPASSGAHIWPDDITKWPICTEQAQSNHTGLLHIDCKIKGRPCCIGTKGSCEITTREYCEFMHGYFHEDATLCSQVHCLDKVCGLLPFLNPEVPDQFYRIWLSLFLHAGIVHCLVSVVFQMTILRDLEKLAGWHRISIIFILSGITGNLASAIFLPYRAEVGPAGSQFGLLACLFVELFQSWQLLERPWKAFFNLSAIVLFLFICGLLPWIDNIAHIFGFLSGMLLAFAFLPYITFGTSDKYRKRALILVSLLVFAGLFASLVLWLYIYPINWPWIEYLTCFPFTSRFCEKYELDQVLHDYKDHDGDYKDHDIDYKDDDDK
# T2: human iRhom2 (inactive rhomboid protein 2, isoform 1), endogenously expressed on human cells (human, UniProt Q6PJF5 1-856)
# T2 sequence: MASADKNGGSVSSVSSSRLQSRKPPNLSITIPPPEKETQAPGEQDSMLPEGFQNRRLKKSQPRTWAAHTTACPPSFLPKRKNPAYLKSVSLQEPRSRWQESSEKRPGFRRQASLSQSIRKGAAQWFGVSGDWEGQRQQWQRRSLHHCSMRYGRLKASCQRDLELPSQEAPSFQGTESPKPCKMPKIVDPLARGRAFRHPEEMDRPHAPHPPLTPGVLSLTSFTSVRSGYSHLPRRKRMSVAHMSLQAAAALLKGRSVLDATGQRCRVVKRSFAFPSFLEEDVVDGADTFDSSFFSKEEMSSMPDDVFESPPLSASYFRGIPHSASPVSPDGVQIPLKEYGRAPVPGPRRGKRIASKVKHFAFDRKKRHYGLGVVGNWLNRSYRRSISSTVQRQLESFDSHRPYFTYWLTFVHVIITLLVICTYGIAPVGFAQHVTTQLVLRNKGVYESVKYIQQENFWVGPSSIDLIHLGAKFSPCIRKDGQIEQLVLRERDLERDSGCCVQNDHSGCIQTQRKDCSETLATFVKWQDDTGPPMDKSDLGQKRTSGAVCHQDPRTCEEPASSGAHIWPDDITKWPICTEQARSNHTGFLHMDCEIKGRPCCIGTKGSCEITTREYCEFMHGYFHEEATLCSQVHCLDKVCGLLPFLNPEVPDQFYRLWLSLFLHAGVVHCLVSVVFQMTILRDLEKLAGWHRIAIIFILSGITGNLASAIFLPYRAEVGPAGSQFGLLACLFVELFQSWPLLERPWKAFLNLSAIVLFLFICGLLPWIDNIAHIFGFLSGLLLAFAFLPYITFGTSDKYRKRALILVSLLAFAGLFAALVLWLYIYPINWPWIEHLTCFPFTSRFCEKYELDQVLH
# B1: antibody 48 (antibody, V domains shown)
# VH: QVQLQQSGTELVRPGTSVKVSCKASGYAFTNYLIEWVKQRPGQGLEWIGVINPGSGFTKYNEKFKGKATLTADKSSSTVYMHLSSLTSEDSAVYFCARGLYRAMDYWGQGTSVTVSS
# VL: DIQMTQSPASQSASLGESVTITCLASQTIATWLAWYQQKPGKSPQLLIYGATTLADGVPSRFSGGGSGTKFSFKISSLQAEDFVSYYCQQLYSTPYTFGGGTKLEIK
# notes: Mouse IgG, kappa light chain; also called clone #48; purified antibody 48
# B2: antibody 47 (antibody, V domains shown)
# VH: B1 VH with T9A, K59N, T69I, T71N, V79A, H82Q, S84I, G99D, Y101K, Y106H
# VL: B1 VL with A30G, Y49H, G50A, T53S, G65S, L91I, T94S
# notes: Mouse IgG, kappa light chain; also called clone #47
# B3: antibody 50 (antibody, V domains shown)
# VH: B1 VH with T9A, T16A, T30S, V79A, H82Q
# VL: B1 VL with A30G, G50A, T52A, T53S, S85N, L91I
# notes: Mouse IgG, kappa light chain; also called clone #50; purified antibody 50
# B4: antibody 43 (antibody, V domains shown)
# VH: QVALKESGPGILQPSQTLSLTCSFSGFSLSTFGMGVGWIRQSSGKGLEWLANIWWDDDKYYNPALKSRLTISKDASKNQAFLKIANVDTADTATYYCARIGNYGSNYWYFDVWGTGTTVTVSS
# VL: QIVLTQSPAIMSASPGERVTMTCSANSRISYMYWYQQKPGSSPRLLIYDTSNLASGVPVRFSGSGSGTSYSLTISRMEAEDAATYNCQQWSSYPLTFGAGTKLELK
# notes: Mouse IgG, kappa light chain; also called clone #43
# B5: antibody 44 (antibody, V domains shown)
# VH: B4 VH with A3T, S42P, G44E, N52H, A75T, A80I, A85T, D91E, A98S
# VL: QIVLTQSPAVMSASPGEKVTMTCTASSSVYYMYWYQQTPGSSPRLLIYDTSNLASGVPVRFSGSGSGTSYSLTISRMEAEDAATYYCQQWNTYPLTFGAGTKLELK
# notes: Mouse IgG, kappa light chain; also called clone #44; m44
# B6: antibody 3 (antibody, V domains shown)
# VH: QVTLKESGPGILQPSQTLSLTCSFSGFSLTTFAMGIGWVRQPSGKGLEWLAHIWWDGEKYNNPVLKSRLTISKDTSKNQVFLRIANVDTPDTATYYCARISSIYYIIDNWGQGTSVTVSS
# VL: DIVLTQSPATLSVTPGHSVSLSCRASQSISNNLHWYQKKSHESPRLLIKYVSQSISGIPSRFSGSGSGTDFTLSINSVETEDFGMYFCQQSYNWPLTFGAGTKLELK
# notes: Mouse IgG, kappa light chain; also called clone #3; purified antibody 3
# B7: antibody 51 (antibody, V domains shown)
# VH: QVQLQQSGAELVKPGASVKISCKASGYTFSNYWMNWVKQRPGKGLEWIGQIYPGDGDTKYNGKFKNKATLTADKSSSTAYMQFSSLTSEDSAVYFCARGDLVFVYWGLGTLVTVSA
# VL: DVQITQSPSYLAVSPGETITINCRASKNIRKYLAWYQEKPGKTNKLLIYSGSTSQSGVPSRFSGSGSGTDFTLTISSLEPEDFAMYYCQQHNEYPYTFGGGTKLEIK
# notes: Mouse IgG, kappa light chain; also called clone #51
# Tests used:
# [1] = molecular target: T1, miR2-FL-WT-FLAG (mouse iRhom2 full …); assay: FACS, MEF-DKO-miR2-FL-WT-FLAG cells
# Description: In brief, immortalized MEF-DKO-EV control cells, MEF-DKO-hiR2-FL-WT-FLAG cells and MEF-DKO-miR2-FL-WT-FLAG cells were harvested with 10 mM EDTA in PBS, washed and resuspended in FACS buffer (PBS, 3% FBS, 0.05% sodium azide), and seeded in Nunc U-bottom 96-well plates (Thermo Fisher Scientific, USA) at approximately 3×10⁵ cells per well. To pellet cells and remove supernatants, the plates were centrifuged at 1,500 rpm and 4° C. for 3 minutes. For primary staining, cells were resuspended in 100 μl per well of either FACS buffer alone (controls), mouse monoclonal anti-FLAG IgG (Sigma-Aldrich, USA) at 3 μg/ml FACS buffer or the antibodies of the present disclosure also at 3 μg/ml FACS buffer and incubated on ice for 1 hour. Afterwards, plates were centrifuged at 1,500 rpm and 4° C. for 3 minutes and washed twice with 200 μl per well of FACS buffer. For secondary staining, cells were spun down and resuspended in 100 μl per well of PE-conjugated goat anti-mouse IgG F(ab′)2 detection fragment (Dianova, Germany) diluted 1:100 in FACS buffer. Protected from light, the cell suspensions were incubated on ice for 1 hour. Plates were then centrifuged at 1,500 rpm and 4° C. for 3 minutes and washed three times with 200 μl per well of FACS buffer. Finally, cells were resuspended in 150 μl per well of FACS buffer and analyzed using a BD Accuri™ C6 Plus flow cytometer (Becton Dickinson, Germany).
# [2] = molecular target: T2, human iRhom2 (inactive rhomboid protein …); assay: cell-based or functional assay
Binder,binding result [1],"inhibition of LPS-induced release of TNFα from THP-1 cells, 10 µg/ml, antibody purified from hybridoma [2]","inhibition of LPS-induced release of TNFα from THP-1 cells, recombinant antibody [2]","inhibition of PMA-induced release of IL-6R from THP-1 cells, 1 µg/ml [2]","inhibition of PMA-induced release of IL-6R from U-937 cells, 1 µg/ml [2]","inhibition of PMA-induced release of TGFα from PC3 cells, 1 µg/ml [2]","inhibition of PMA-induced release of TNFα from U-937 cells, 1 µg/ml [2]","inhibition of PMA-induced release of HB-EGF from THP-1 cells, 3 µg/ml [2]",inhibition of PMA-induced release of HB-EGF from U-937 cells [2],"inhibition of PMA-induced release of IL-6R from U-937 cells, 3 µg/ml [2]","inhibition of PMA-induced release of TNFα from U-937 cells, 3 µg/ml [2]"
B1,no binding (tested: 3 µg/ml),,,,,,,,,,
B2,no binding (tested: 3 µg/ml),,,,,,,,,,
B3,no binding (tested: 3 µg/ml),,,,,,,,,,
B4,no binding (tested: 3 µg/ml),74.8 % inhibition,78.5 % inhibition,72.9 % inhibition,76.1 % inhibition,12.4 % inhibition,78.3 % inhibition,,,,
B5,no binding (tested: 3 µg/ml),32.2 % inhibition,73.2 % inhibition,73 % inhibition,71.8 % inhibition,14.1 % inhibition,76.5 % inhibition,67.5 % inhibition,100 % inhibition,82 % inhibition,86.3 % inhibition
B6,,71.2 % inhibition,59.9 % inhibition,46.7 % inhibition,61.8 % inhibition,,65.9 % inhibition,,,,
B7,no binding (tested: 3 µg/ml),,,,,,,,,,
